Reference: the RNAGym collection of RNA variant scans (doi:10.1093/molbev/msab373)

B1: Azoarcus group I ribozyme (parent)
chain: GUGCCUUGCGCCGGGAAACCACGCAAGGGAUGGUGUCAAAUUCGGCGAAACCUAAGCGCCCGCCCGGGCGUAUGGCAACGCCGAGCCAAGCUUCGGCGCCUGCGCCGAUGAAGGUGUAGAGACUAGACGGCACCCACCUAAGGCAAACGCUAUGGUGAAGGCAUAGUCCAGGGAGUGGCGAAAGUCACACAAACCGG

Variants of: B1
Assay: reverse-splicing fitness (ratio to wild type); higher = more active; in vitro selection; Mg2+ level not given
Outline: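 An in vitro group I ribozyme library with randomized positions was T7-transcribed and gel-purified. In triplicate, 10 pmol RNA in EPPS pH 7.5 was reacted with 50 pmoles of a 30-nt RNA substrate for 1 h at 37 °C across several added MgCl2 levels (1–48 mM), then stopped with EDTA. Products were reverse transcribed from a substrate-complementary primer, PCR-amplified and sequenced (HiSeq 4000). Fitness is a variant's read proportion after selection over that before, normalised to wild type.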

Variant	reverse-splicing fitness
GUGCCUUGCGCCGGGAAACCACGCAAGGGAUGGUGUCAAAUUCGGCGAAACCUAAGCGCCCGCCCGGGCGUAUGGCAACGCGGAGCCAAGCUUCGGCGCCUGCGCCGAUGGAGGUGUAGUGACUAGACGGCACCCACCUAAGGCCAACGGUAUGGUGAAGGCAUAGUCUAGGGAGUGGCGAAAGUCACACAAACCGG [C82G A111G A120U A145C C150G C169U]	0.00296
GUGCCUUGCGCCGGGAAACCACGCAAGGGAUGGUGUCAAAUUCGGCGAAACCUAAGCGCCCGCCCGGGCGUAUGGCAACGCGGAGCCAAGCUUCGGCGCCUGCGCCGAUGGAGGUGUAGUGACUAGACGGCACCCACCUAAGGCCAACGGUAUGGUGAAGGCAUAGUCUAGGGAGAGGCGAAAGUCACACAAACCGG [C82G A111G A120U A145C C150G C169U U176A]	0.00286
GUGCCUUGCGCCGGGAAACCACGCAAGGGAUGGUGUCAAAUUCGGCGAAACCUAAGCGCCCGCCCGGGCGUAUGGCAACGCGGAGCCAAGCUUCGGCGCCUGCGCCGAUGGAGGUGUAGUGACUAGACGGCACCCACCUAAGGCCAACGGUAUGGUGAAGGCAUAGUCUAGGGAGCGGCGAAAGUCACACAAACCGG [C82G A111G A120U A145C C150G C169U U176C]	0.00238
GUGCCUUGCGCCGGGAAACCACGCAAGGGAUGGUGUCAAAUUCGGCGAAACCUAAGCGCCCGCCCGGGCGUAUGGCAACGCGGAGCCAAGCUUCGGCGCCUGCGCCGAUGGAGGUGUAGUGACUAGACGGCACCCACCUAAGGCCAACGGUAUGGUGAAGGCAUAGUCUAGGGAGGGGCGAAAGUCACACAAACCGG [C82G A111G A120U A145C C150G C169U U176G]	0.00221
GUGCCUUGCGCCGGGAAACCACGCAAGGGAUGGUGUCAAAUUCGGCGAAACCUAAGCGCCCGCCCGGGCGUAUGGCAACGCGGAGCCAAGCUUCGGCGCCUGCGCCGAUGGAGGUGUAGUGACUAGACGGCACCCACCUAAGGCCAACGGUAUGGUGAAGGCAUAGUCCAGGGAGAGGCGAAAGUCACACAAACCGG [C82G A111G A120U A145C C150G U176A]	0.00327
GUGCCUUGCGCCGGGAAACCACGCAAGGGAUGGUGUCAAAUUCGGCGAAACCUAAGCGCCCGCCCGGGCGUAUGGCAACGCGGAGCCAAGCUUCGGCGCCUGCGCCGAUGGAGGUGUAGUGACUAGACGGCACCCACCUAAGGCCAACGGUAUGGUGAAGGCAUAGUCCAGGGAGCGGCGAAAGUCACACAAACCGG [C82G A111G A120U A145C C150G U176C]	0.00396
GUGCCUUGCGCCGGGAAACCACGCAAGGGAUGGUGUCAAAUUCGGCGAAACCUAAGCGCCCGCCCGGGCGUAUGGCAACGCGGAGCCAAGCUUCGGCGCCUGCGCCGAUGGAGGUGUAGUGACUAGACGGCACCCACCUAAGGCCAACGGUAUGGUGAAGGCAUAGUCCAGGGAGGGGCGAAAGUCACACAAACCGG [C82G A111G A120U A145C C150G U176G]	0.00247
GUGCCUUGCGCCGGGAAACCACGCAAGGGAUGGUGUCAAAUUCGGCGAAACCUAAGCGCCCGCCCGGGCGUAUGGCAACGCGGAGCCAAGCUUCGGCGCCUGCGCCGAUGGAGGUGUAGUGACUAGACGGCACCCACCUAAGGCCAACGUUAUGGUGAAGGCAUAGUCCAGGGAGUGGCGAAAGUCACACAAACCGG [C82G A111G A120U A145C C150U]	0.0153
GUGCCUUGCGCCGGGAAACCACGCAAGGGAUGGUGUCAAAUUCGGCGAAACCUAAGCGCCCGCCCGGGCGUAUGGCAACGCGGAGCCAAGCUUCGGCGCCUGCGCCGAUGGAGGUGUAGUGACUAGACGGCACCCACCUAAGGCCAACGUUAUGGUGAAGGCAUAGUCAAGGGAGUGGCGAAAGUCACACAAACCGG [C82G A111G A120U A145C C150U C169A]	0.00231
GUGCCUUGCGCCGGGAAACCACGCAAGGGAUGGUGUCAAAUUCGGCGAAACCUAAGCGCCCGCCCGGGCGUAUGGCAACGCGGAGCCAAGCUUCGGCGCCUGCGCCGAUGGAGGUGUAGUGACUAGACGGCACCCACCUAAGGCCAACGUUAUGGUGAAGGCAUAGUCAAGGGAGAGGCGAAAGUCACACAAACCGG [C82G A111G A120U A145C C150U C169A U176A]	0.00272
GUGCCUUGCGCCGGGAAACCACGCAAGGGAUGGUGUCAAAUUCGGCGAAACCUAAGCGCCCGCCCGGGCGUAUGGCAACGCGGAGCCAAGCUUCGGCGCCUGCGCCGAUGGAGGUGUAGUGACUAGACGGCACCCACCUAAGGCCAACGUUAUGGUGAAGGCAUAGUCAAGGGAGCGGCGAAAGUCACACAAACCGG [C82G A111G A120U A145C C150U C169A U176C]	0.00184
GUGCCUUGCGCCGGGAAACCACGCAAGGGAUGGUGUCAAAUUCGGCGAAACCUAAGCGCCCGCCCGGGCGUAUGGCAACGCGGAGCCAAGCUUCGGCGCCUGCGCCGAUGGAGGUGUAGUGACUAGACGGCACCCACCUAAGGCCAACGUUAUGGUGAAGGCAUAGUCAAGGGAGGGGCGAAAGUCACACAAACCGG [C82G A111G A120U A145C C150U C169A U176G]	0.00197
GUGCCUUGCGCCGGGAAACCACGCAAGGGAUGGUGUCAAAUUCGGCGAAACCUAAGCGCCCGCCCGGGCGUAUGGCAACGCGGAGCCAAGCUUCGGCGCCUGCGCCGAUGGAGGUGUAGUGACUAGACGGCACCCACCUAAGGCCAACGUUAUGGUGAAGGCAUAGUCGAGGGAGUGGCGAAAGUCACACAAACCGG [C82G A111G A120U A145C C150U C169G]	0.00281
GUGCCUUGCGCCGGGAAACCACGCAAGGGAUGGUGUCAAAUUCGGCGAAACCUAAGCGCCCGCCCGGGCGUAUGGCAACGCGGAGCCAAGCUUCGGCGCCUGCGCCGAUGGAGGUGUAGUGACUAGACGGCACCCACCUAAGGCCAACGUUAUGGUGAAGGCAUAGUCGAGGGAGAGGCGAAAGUCACACAAACCGG [C82G A111G A120U A145C C150U C169G U176A]	0.00296
GUGCCUUGCGCCGGGAAACCACGCAAGGGAUGGUGUCAAAUUCGGCGAAACCUAAGCGCCCGCCCGGGCGUAUGGCAACGCGGAGCCAAGCUUCGGCGCCUGCGCCGAUGGAGGUGUAGUGACUAGACGGCACCCACCUAAGGCCAACGUUAUGGUGAAGGCAUAGUCGAGGGAGCGGCGAAAGUCACACAAACCGG [C82G A111G A120U A145C C150U C169G U176C]	0.0031
